Assay results taken from US20250333474A1.

Target: T1, H-2K^b of MHC class I of MutuDC1940 cells (without loaded OVA^257-264 peptide) (mouse)
T1 chain 1: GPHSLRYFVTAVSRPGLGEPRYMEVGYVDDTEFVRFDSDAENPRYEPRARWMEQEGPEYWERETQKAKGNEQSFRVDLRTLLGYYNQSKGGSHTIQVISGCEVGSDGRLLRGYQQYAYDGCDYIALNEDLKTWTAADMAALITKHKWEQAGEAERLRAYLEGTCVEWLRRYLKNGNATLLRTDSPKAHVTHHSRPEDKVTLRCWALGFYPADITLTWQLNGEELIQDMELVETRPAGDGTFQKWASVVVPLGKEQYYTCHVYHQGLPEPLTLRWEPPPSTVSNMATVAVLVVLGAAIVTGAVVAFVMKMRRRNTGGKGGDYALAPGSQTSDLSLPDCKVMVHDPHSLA
T1 chain 2: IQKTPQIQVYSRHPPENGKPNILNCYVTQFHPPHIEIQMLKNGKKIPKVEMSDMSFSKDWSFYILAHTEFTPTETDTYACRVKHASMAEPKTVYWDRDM
Assay: peptide loading on MutuDC1940 cells for 24 h, read by 25D1.16 staining and flow cytometry
Conditions: remark: other sources report otherwise

B1: OVA^257-264 antigen peptide (peptide)
peptide: SIINFEKL
B1 was tested, and the saturate peptide concentration was 2 µg/mL.
